The source of these data is patent US20090252748A1.

The IC50 is the concentration that gives 50% inhibition. Higher therefore signals weaker potency.

In experiment [1] the target is human Sp35 protein expressed on transfected cells (human) (UniProt Q96FE5). Put plainly: FACS, live human LINGO-1 transfected 293 cells, PE-labelled secondary antibody without primary antibody, FL2-H; Cell only 0.94 [panel 2nd Ab only].
The target is the same in experiment [2]. Put plainly: FACS, live human LINGO-1 transfected 293 cells, PE-labelled secondary antibody without primary antibody, FL2-H; Cell only 4.47 [panel 2nd Ab only].
The target is the same in experiment [3]. Put plainly: FACS, live human LINGO-1 transfected 293 cells, PE-labelled secondary antibody without primary antibody, FL2-H; Cell only 4.71 [panel 2nd Ab only]. (In general: A flow cytometer gives signals particle by particle.)
Experiment [4] has the same target. Put plainly: FACS, live human LINGO-1 transfected 293 cells, PE-labelled secondary antibody without primary antibody, FL2-H; Cell only 5.81 [panel 2nd Ab only].
Experiment [5] addresses CD32. Put plainly: CD32 binding assay, format not described.

human Sp35 protein expressed on transfected cells (human), sequence (Q96FE5 40-620): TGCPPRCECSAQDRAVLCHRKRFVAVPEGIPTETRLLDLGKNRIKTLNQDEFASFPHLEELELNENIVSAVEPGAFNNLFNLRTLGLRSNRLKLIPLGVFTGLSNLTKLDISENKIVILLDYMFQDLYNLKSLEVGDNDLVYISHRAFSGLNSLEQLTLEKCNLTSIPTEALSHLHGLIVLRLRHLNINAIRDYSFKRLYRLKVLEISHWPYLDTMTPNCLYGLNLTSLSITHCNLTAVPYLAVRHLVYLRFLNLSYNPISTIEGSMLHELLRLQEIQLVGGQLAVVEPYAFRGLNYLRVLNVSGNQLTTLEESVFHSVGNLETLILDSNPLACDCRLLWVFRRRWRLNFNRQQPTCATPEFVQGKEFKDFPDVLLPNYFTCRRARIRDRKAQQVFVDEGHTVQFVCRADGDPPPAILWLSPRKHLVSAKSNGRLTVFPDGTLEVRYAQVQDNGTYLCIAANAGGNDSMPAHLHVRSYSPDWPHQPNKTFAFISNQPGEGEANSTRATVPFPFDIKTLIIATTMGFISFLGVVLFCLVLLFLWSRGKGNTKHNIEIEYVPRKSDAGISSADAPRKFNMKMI

In experiment [1], “2nd Ab only (PE-labelled secondary antibody without primary antibody)” displayed a number over the marker gate of the FL2-H histogram of 5.52. Further, in experiment [2], the (FL2-H) Geom. Mean came out at 6.6. In experiment [3], this substance yielded a (FL2-H) Median of 6.76. In experiment [4], this substance came in with a (FL2-H) Mean of 8.78.
Take Li33Ig2 agly (antibody): the IC50 in experiment [5] stood at 25 µg/mL.
On the same count and under the same terms, to Li33Ig2 wt (antibody) belongs 4.3 µg/mL.
